Assay results published in patent US9790551B2, “Use of TRPC6 mRNA levels in peripheral blood cells for early detection/diagnosis of senile dementia” (Aging Wise Biotechnology, Inc., priority 2013, dated 2017).

Legend:
γ-secretase = details: phase 3 clinical trial, cited from earlier work
[1] = tested on: Aβ levels in primary cultured rat cortical neurons; assay: Aβ ELISA of medium, primary cultured rat cortical neurons electrotransfected with siRNA; format: cell-based; details: Table 6, 7 days after electrotransfection, control siRNA = 1
Method: (§1) Upon collecting the culture medium of the cells, Aβ40 and Aβ42 levels were quantified with sandwich ELISA kit, respectively (purchased from Invitrogen). The forebrain of the mouse was dissected and separated, and then homogenized with GuHCL. After that, total Aβ was determined by ELISA. For determining TBST(Tris-Buffered Saline and 1% TritonX100, 1% SDS, 1% DOC) soluble and insoluble Aβ, upon TBST homogenation and centrifugation of the forebrain of the mouse, the supernatant was determined for TBST soluble Aβ by ELISA, and the precipitate was determined for TBST insoluble Aβ by ELISA upon another GuHCL homogenate.
Fetal rat was collected on the 17th day of SD rat pregnancy. Cortical neurons of the rat brains were separated, obtained, and electrotransfected by Nucleofector Device (Amaxa) with TRPC6 siRNA1 as set forth by SEQ ID NO.:12 (sense strand) and SEQ ID NO.:13 (anti-sense strand), TRPC6 siRNA2 as set forth by SEQ ID NO.:18 ([…], sense strand) and SEQ ID NO.:19 ([…], anti-sense strand), control siRNAs as set forth by SEQ ID NO.:14 (sense strand) and SEQ ID NO.:15 (anti-sense strand), and TRPC5 siRNA as set forth by SEQ ID NO.:20 ([…], sense strand) and SEQ ID NO.:21 ([…], anti-sense strand). 7 days after electrotransfection, Aβ levels in the medium were examined by ELISA.

[2] = tested on: Aβ levels in HEK293APP stable cells; assay: Aβ ELISA of culture medium, HEK293APP stable cells transfected with TRPC plasmids; format: cell-based; details: empty vector = 1
Method: as §1
HEK293APP stable cell line was cultured in DMEM culture solution (containing 200 ng/ml G418) with 10% FBS. C0S7C99 cells were cultured in MEM/F12 culture solution (containing 0.4 ug/ml hygromycin B) with 5% FBS, 1% NEAA, and 200 mM Glutamax. All the transfection was conducted by using Lipofectamin 2000 (Invitrogen).
HEK293 cells were inoculated to 60 mm dishes. When the density was close to 80%, 4 ug APP plasmid was transfected with Lipofectamine 2000. After 4 h, the culture medium was replaced and 400 ng/ml of G418 was added. Cells were passage 2 days later and G418 in the culture was maintained at 400 ng/ml. After 2-3 weeks, the cells not transected died gradually, and the survived cells were HEK293 cells expressing APP. Then, G418 was reduced to and maintained at 200 ng/ml.
TRPC6 or TRPC5 was overexpressed in HEK293APP stable cell lines respectively (Cells were passaged into 12-well plates till the densities were close to 80%. Each well was transfected with 1 ug plasmid using Lipofectamine 2000, and the Aβ levels in the medium were determined with ELISA after 48 hr).
Afterwards, HEK293APP stable cells were passaged in 12-well plate till the density approached 80%. Each well was transfected with lug plasmid using Lipofectamine 2000, and the Aβ levels in the culture medium were determined with ELISA after 48 h. The targeting fragment was primarily narrowed down to 437-507aa.
The […] of TRPC6 contains the first transmembrane regions(TM1), the first extracellular loop (Loop1), and the second transmembrane regions (TM2). To further narrow down the active domain, we constructed 3 variant plasmids, with TM2 region replacement by TM1 region (C6-mut1), reversal of TM2 sequence (C6-mut2) or point mutations within TM2 region(C6-mut3). Then HEK293APP stable cells were passaged in 12-well plate. When the density was close to 80%, every well was transfected with lug plasmid using Lipofectamine 2000, and the Aβ levels in the medium were determined with ELISA after 48 h. The active fragment was further narrowed down to 487-507aa.

[3] = Table 4, TRPC6 fragments, HEK293APP stable cells, 48 h
[4] = Table 1, HEK293APP stable cell, 1 ug plasmid, medium ELISA after 48 hr

## CC(C)[C@H](O)C(=O)N[C@@H](C)C(=O)N[C@@H]1C(=O)N(C)CCc2ccccc21 [Semagacestat]
γ-secretase; AD patients
  adverse gastrointestinal reaction: increased
  risk of skin cancer: increased
γ-secretase
  cognitive function of the AD patients: declined

## Control siRNA: control siRNAs, SEQ ID NO.:14 (sense strand) and SEQ ID NO.:15 (anti-sense strand) (sense GCACACCGAAGGAUAUUCUTT; antisense AGAAUAUCCUUCGGUGUGCTT; chemistry not given here)
[1]
  Aβ40: 1
  Aβ42: 1

## TRPC5 siRNA: TRPC5 siRNA, SEQ ID NO.:20 AACGCCUUCUCCACGCUCUUU and SEQ ID NO.:21 AAAGAGCGUGGAGAAGGCGUU (listed as RNA, chemistry not given here)
[1]
  Aβ40: 0.96 ± 0.09
  Aβ42: 1.03 ± 0.02

## TRPC6 siRNA-1: TRPC6 siRNA, SEQ ID NO.:12 (sense strand) and SEQ ID NO.:13 (anti-sense strand) (sense CGGUGGUCAUCAACUACAATT; antisense UUGUAGUUGAUGACCACCGTT; chemistry not given here)
[1]
  Aβ40: 1.49 ± 0.16
  Aβ42: 1.89 ± 0.21

## TRPC6 siRNA-2: TRPC6 siRNA, SEQ ID NO.:18 GCUUGACUUUGGAAUGUUATT and SEQ ID NO.:19 UAACAUUCCAAAGUCAAGCTT (chemistry not given here)
[1]
  Aβ40: 1.33 ± 0.13
  Aβ42: 1.63 ± 0.17

B1: 389/510aa: TRPC6 fragment 389~510aa expressed from plasmid (protein, UniProt Q9Y210 389-510, looked up, fragment)
chain: SIWYENLSGLRQQTMAVKFLVVLAVAIGLPFLALIYWFAPCSKMGKIMRGPFMKFVAHAASFTIFLGLLVMNAADRFEGTKLLPNETSTDNAKQLFRMKTSCFSWMEMLIISWVIGMIWAEC
[2]; [3]
  Aβ40: 0.5959 ± 0.08036
  Aβ42: 0.6131 ± 0.1299

B2: 725/930aa: TRPC6 fragment 725~930aa expressed from plasmid (protein, UniProt Q9Y210 725-930, looked up, fragment)
chain: AMINSSFQEIEDDADVEWKFARAKLWFSYFEEGRTLPVPFNLVPSPKSLFYLLLKLKKWISELFQGHKKGFQEDAEMNKINEEKKLGILGSHEDLSKLSLDKKQVGHNKQPSIRSSEDFHLNSFNNPPRQYQKIMKRLIKRYVLQAQIDKESDEVNEGELKEIKQDISSLRYELLEEKSQNTEDLAELIRELGEKLSMEPNQEETN
[2]; [3]
  Aβ40: 1.007 ± 0.07289
  Aβ42: 0.9822 ± 0.0099

B3: 1/405aa: TRPC6 fragment 1~405aa expressed from plasmid (protein, UniProt Q9Y210 1-405, looked up, fragment)
chain: MSQSPAFGPRRGSSPRGAAGAAARRNESQDYLLMDSELGEDGCPQAPLPCYGYYPCFRGSDNRLAHRRQTVLREKGRRLANRGPAYMFSDRSTSLSIEEERFLDAAEYGNIPVVRKMLEECHSLNVNCVDYMGQNALQLAVANEHLEITELLLKKENLSRVGDALLLAISKGYVRIVEAILSHPAFAEGKRLATSPSQSELQQDDFYAYDEDGTRFSHDVTPIILAAHCQEYEIVHTLLRKGARIERPHDYFCKCNDCNQKQKHDSFSHSRSRINAYKGLASPAYLSLSSEDPVMTALELSNELAVLANIEKEFKNDYKKLSMQCKDFVVGLLDLCRNTEEVEAILNGDVETLQSGDHGRPNLSRLKLAIKYEVKKFVAHPNCQQQLLSIWYENLSGLRQQTMAV
[2]; [3]
  Aβ40: 0.9674 ± 0.06376
  Aβ42: 0.9822 ± 0.03662

B4: TRPC5: TRPC family member TRPC5, overexpressed from plasmid as comparison (protein, UniProt Q9UL62 1-973, looked up)
chain: MAQLYYKKVNYSPYRDRIPLQIVRAETELSAEEKAFLNAVEKGDYATVKQALQEAEIYYNVNINCMDPLGRSALLIAIENENLEIMELLLNHSVYVGDALLYAIRKEVVGAVELLLSYRRPSGEKQVPTLMMDTQFSEFTPDITPIMLAAHTNNYEIIKLLVQKRVTIPRPHQIRCNCVECVSSSEVDSLRHSRSRLNIYKALASPSLIALSSEDPILTAFRLGWELKELSKVENEFKAEYEELSQQCKLFAKDLLDQARSSRELEIILNHRDDHSEELDPQKYHDLAKLKVAIKYHQKEFVAQPNCQQLLATLWYDGFPGWRRKHWVVKLLTCMTIGFLFPMLSIAYLISPRSNLGLFIKKPFIKFICHTASYLTFLFMLLLASQHIVRTDLHVQGPPPTVVEWMILPWVLGFIWGEIKEMWDGGFTEYIHDWWNLMDFAMNSLYLATISLKIVAYVKYNGSRPREEWEMWHPTLIAEALFAISNILSSLRLISLFTANSHLGPLQISLGRMLLDILKFLFIYCLVLLAFANGLNQLYFYYETRAIDEPNNCKGIRCEKQNNAFSTLFETLQSLFWSVFGLLNLYVTNVKARHEFTEFVGATMFGTYNVISLVVLLNMLIAMMNNSYQLIADHADIEWKFARTKLWMSYFDEGGTLPPPFNIIPSPKSFLYLGNWFNNTFCPKRDPDGRRRRRNLRSFTERNADSLIQNQHYQEVIRNLVKRYVAAMIRNSKTHEGLTEENFKELKQDISSFRYEVLDLLGNRKHPRSFSTSSTELSQRDDNNDGSGGARAKSKSVSFNLGCKKKTCHGPPLIRTMPRSSGAQGKSKAESSSKRSFMGPSLKKLGLLFSKFNGHMSEPSSEPMYTISDGIVQQHCMWQDIRYSQMEKGKAEACSQSEINLSEVELGEVQGAAQSSECPLACSSSLHCASSICSSNSKLLDSSEDVFETWGEACDLLMHKWGDGQEEQVTTRL
modifications: full-length
notes: TRPC family member TRPC5, overexpressed from plasmid as comparison
[2]; [4]
  Aβ40: 0.9900 ± 0.02548
  Aβ42: 0.9488 ± 0.02053

B5: 508/633aa: TRPC6 fragment 508~633aa expressed from plasmid (protein, UniProt Q9Y210 508-633, looked up, fragment)
chain: AECKEIWTQGPKEYLFELWNMLDFGMLAIFAASFIARFMAFWHASKAQSIIDANDTLKDLTKVTLGDNVKYYNLARIKWDPSDPQIISEGLYAIAVVLSFSRIAYILPANESFGPLQISLGRTVKD
[2]; [3]
  Aβ40: 1.016 ± 0.04396
  Aβ42: 1.042 ± 0.02037

B6: 437/633aa: TRPC6 fragment 437~633aa expressed from plasmid (protein, UniProt Q9Y210 437-633, looked up, fragment)
chain: RGPFMKFVAHAASFTIFLGLLVMNAADRFEGTKLLPNETSTDNAKQLFRMKTSCFSWMEMLIISWVIGMIWAECKEIWTQGPKEYLFELWNMLDFGMLAIFAASFIARFMAFWHASKAQSIIDANDTLKDLTKVTLGDNVKYYNLARIKWDPSDPQIISEGLYAIAVVLSFSRIAYILPANESFGPLQISLGRTVKD
[2]; [3]
  Aβ40: 0.8146 ± 0.07986
  Aβ42: 0.7096 ± 0.09708

B7: 389/930aa: TRPC6 fragment 389~930aa expressed from plasmid (protein, UniProt Q9Y210 389-930, looked up, fragment)
chain: SIWYENLSGLRQQTMAVKFLVVLAVAIGLPFLALIYWFAPCSKMGKIMRGPFMKFVAHAASFTIFLGLLVMNAADRFEGTKLLPNETSTDNAKQLFRMKTSCFSWMEMLIISWVIGMIWAECKEIWTQGPKEYLFELWNMLDFGMLAIFAASFIARFMAFWHASKAQSIIDANDTLKDLTKVTLGDNVKYYNLARIKWDPSDPQIISEGLYAIAVVLSFSRIAYILPANESFGPLQISLGRTVKDIFKFMVIFIMVFVAFMIGMFNLYSYYIGAKQNEAFTTVEESFKTLFWAIFGLSEVKSVVINYNHKFIENIGYVLYGVYNVTMVIVLLNMLIAMINSSFQEIEDDADVEWKFARAKLWFSYFEEGRTLPVPFNLVPSPKSLFYLLLKLKKWISELFQGHKKGFQEDAEMNKINEEKKLGILGSHEDLSKLSLDKKQVGHNKQPSIRSSEDFHLNSFNNPPRQYQKIMKRLIKRYVLQAQIDKESDEVNEGELKEIKQDISSLRYELLEEKSQNTEDLAELIRELGEKLSMEPNQEETN
[2]; [3]
  Aβ40: 0.7699 ± 0.07728
  Aβ42: 0.7217 ± 0.0695
